The text below walks through data of article PMC13423832.

The target of this assay is COX4I1. Description: AP-MS (FLAG affinity purification, protein intensity). The conditions noted are these: HEK293T transiently overexpressing FLAG-tagged COX5A; n = 3 biological replicates, mean ± SD; parent: est. 1.1e10; read off a plot.

Regarding “COX5A-FLAG, wild type (from UniProt P20674) T79G”, the response was 6e+09 intensity.

As to “COX5A-FLAG, wild type (from UniProt P20674) D81W”, the response came out at 2.5e+10 intensity.

For the substance “COX5A-FLAG, wild type (from UniProt P20674) Y80W”, the response amounted to 5e+09 intensity.
